Experimental data published in patent publication US20190284293A1 (Bristol-Myers Squibb, published 2019).
Substitutions are numbered along the chain they refer to. Several values for one entry are separate records, joined by “and”; a condition that tells them apart may be missing. Equal values may be shown once.

B1: 11F11 (antibody, human IgG2, kappa, V domains shown)
VH: QVQLVESGGGVVQPGRSLRLSCATSGFTFSNYGMHWVRQAPGKGLEWVAVILYDGSNKYYPDSVKGRFTISRDNSKNTLYLQMNSLRAEDTAVYYCARGGSSWYPDSFDIWGQGTMVTVSS
VL: DIQMTQSPSSLSASVGDRVTITCRASQGISSWLAWYQQKPEKAPKSLIYAASSLQSGVPSRFSGSGSGTDFTLTISSLQPEDFATYYCQQYNSYPLTFGGGTKVEIKR
notes: Human IgG2; also called 11F11-2
B2: CD73.4-IgG2-C219S (antibody)
heavy: QVQLVESGGGVVQPGRSLRLSCAASGFTFSNYGMHWVRQAPGKGLEWVAVILYDGSNKYYPDSVKGRFTISRDNSKNTLYLQMNSLRAEDTAVYYCARGGSSWYPDSFDIWGQGTMVTVSSASTKGPSVFPLAPCSRSTSESTAALGCLVKDYFPEPVTVSWNSGALTSGVHTFPAVLQSSGLYSLSSVVTVPSSNFGTQTYTCNVDHKPSNTKVDKTVERKSCVECPPCPAPPVAGPSVFLFPPKPKDTLMISRTPEVTCVVVDVSHEDPEVQFNWYVDGVEVHNAKTKPREEQFNSTFRVVSVLTVVHQDWLNGKEYKCKVSNKGLPAPIEKTISKTKGQPREPQVYTLPPSREEMTKNQVSLTCLVKGFYPSDIAVEWESNGQPENNYKTTPPMLDSDGSFFLYSKLTVDKSRWQQGNVFSCSVMHEALHNHYTQKSLSLSPG
light: not shown
notes: also called CD73.4-IgG2CS; CD73.4-IgG2.3

Tests used:
[1] = molecular target: T1, rhCD73 bound to his-tag magnet beads (human, UniProt P21589 27-547, limits assumed); test: cell-based or functional assay
T1 sequence: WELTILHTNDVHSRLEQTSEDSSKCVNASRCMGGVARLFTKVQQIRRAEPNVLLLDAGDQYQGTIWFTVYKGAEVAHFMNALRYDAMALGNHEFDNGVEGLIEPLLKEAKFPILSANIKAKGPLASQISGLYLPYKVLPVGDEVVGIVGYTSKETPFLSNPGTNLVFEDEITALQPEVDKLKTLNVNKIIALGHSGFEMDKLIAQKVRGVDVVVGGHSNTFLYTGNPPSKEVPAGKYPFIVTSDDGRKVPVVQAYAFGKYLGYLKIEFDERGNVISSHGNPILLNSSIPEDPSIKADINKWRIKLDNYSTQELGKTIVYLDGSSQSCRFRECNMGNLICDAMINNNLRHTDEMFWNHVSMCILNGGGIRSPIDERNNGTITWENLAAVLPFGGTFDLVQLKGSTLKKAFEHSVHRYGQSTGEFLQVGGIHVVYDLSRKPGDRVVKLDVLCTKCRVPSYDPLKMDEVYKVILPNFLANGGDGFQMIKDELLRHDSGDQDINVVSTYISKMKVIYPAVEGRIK

human CD73 on cells [2] = molecular target: T2, human CD73 on cells (human, UniProt P21589 27-549); test: cell-based or functional assay
T2 sequence: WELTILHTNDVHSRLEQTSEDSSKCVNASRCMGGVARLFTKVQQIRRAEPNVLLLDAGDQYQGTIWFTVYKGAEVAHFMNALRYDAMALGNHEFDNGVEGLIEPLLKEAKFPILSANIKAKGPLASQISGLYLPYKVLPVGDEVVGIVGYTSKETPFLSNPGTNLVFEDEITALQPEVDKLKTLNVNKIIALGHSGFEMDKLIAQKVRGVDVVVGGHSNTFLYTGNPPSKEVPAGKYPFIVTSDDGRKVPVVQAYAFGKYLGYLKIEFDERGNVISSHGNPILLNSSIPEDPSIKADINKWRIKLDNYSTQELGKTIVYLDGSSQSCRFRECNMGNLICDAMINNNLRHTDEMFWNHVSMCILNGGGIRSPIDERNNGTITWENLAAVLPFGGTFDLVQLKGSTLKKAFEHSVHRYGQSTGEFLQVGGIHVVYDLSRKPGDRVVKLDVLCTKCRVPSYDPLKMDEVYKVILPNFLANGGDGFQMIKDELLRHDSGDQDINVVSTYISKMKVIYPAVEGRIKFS

human CD73 on cells [3] = molecular target: T2, human CD73 on cells; test: cell-based or functional assay; remark: listed apart in the source
human CD73 on cells [4] = molecular target: T2, human CD73 on cells; test: cell-based or functional assay; remark: listed apart in the source
[5] = molecular target: T3, N-hCD73-his (N-terminal domain of human CD73, residues 26-336, His tag) (human, UniProt P21589 26-336); test: SPR, mAb captured on protein A
T3 sequence: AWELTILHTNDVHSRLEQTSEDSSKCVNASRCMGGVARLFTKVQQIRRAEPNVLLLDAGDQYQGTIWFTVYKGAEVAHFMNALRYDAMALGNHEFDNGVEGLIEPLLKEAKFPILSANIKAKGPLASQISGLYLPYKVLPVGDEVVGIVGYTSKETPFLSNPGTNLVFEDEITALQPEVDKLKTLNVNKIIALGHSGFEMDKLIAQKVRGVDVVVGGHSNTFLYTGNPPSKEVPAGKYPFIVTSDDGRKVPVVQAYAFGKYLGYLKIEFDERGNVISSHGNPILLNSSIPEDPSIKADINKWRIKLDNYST
Procedure: (§1) For these experiments, protein A (Pierce) was immobilized to a density of 3000-4000 RU on flow cells 1-4 of a CM5 sensor chip (GE Healthcare) using standard ethyl(dimethylaminopropyl) carbodiimide (EDC)/N-hydroxysuccinimide […] chemistry, with ethanolamine blocking, in a running buffer of 0.01 M HEPES pH 7.4, 0.15 M NaCl, 3 mM EDTA, 0.005% v/v tween 20. […] The running buffer for the kinetic experiments was 10 mM sodium phosphate, 130 mM sodium chloride, 0.05% tween 20, pH 7.1. The surfaces were regenerated after each cycle using two 30 s pulses of 10 mM glycine pH 1.5 at a flow rate of 30 μl/min. Sensogram data was double-referenced and then fitted to a 1:1 Langmuir model using Biacore T100 evaluation software v2.0.4, to determine the association rate constant (ka), the dissociation rate constant (kd), and the equilibrium dissociation constant (KD).

[6] = molecular target: T3, N-hCD73-his (N-terminal domain of human …); test: SPR, comparison of all IgG2 molecules
Procedure: as §1

[7] = molecular target: T4, cynomolgus CD73 on transfected CHO cells (cynomolgus, UniProt P21589 27-549 (human entry)); test: flow cytometry, CHO-cynoCD73 cells
T4 construct: also called CHO-cynoCD73; CHO-Cynomolgus CD73 transfectants
T4 chain: T2 sequence with M199T, T350A, V466I
Procedure: (§2) Titration binding curves were produced with CD73 antibodies on Calu6 (CD73 endogenous expressors; human pulmonary adenocarcinoma cell line), DMS114 (CD73 negative; human small cell lung cancer cell line), CHO-cynoCD73 (cynoCD73-transfected) and CHO-K1 (cynoCD73 negative), cells using Alexa Fluor® 647 Goat Anti-Human IgG (H+L) as a secondary antibody, Invitrogen Cat#A-21445, using the following method: 100000 cells were plated in 100 uL PBS+2% FBS per well and blocked for 20 min. Using a U-bottom 96-deep well plate, volumes of antibody and PBS+2% FBS were combined as dictated by Table 12 below.
(§3) An 8-point serial dilution was performed by diluting a sixth of the volume (90 uL) into […], PBS+2% FBS. The cell plate was spun down for 5 minutes at 1500 rpm. 100 uL of diluted antibody was added per well of the plate. 100 uL PBS+2% FBS were added to all other wells. […] The plates were spun down at 1500 rpm for 5 min and washed in 200 uL PBS+2% FBS per well. The plates were washed again, resuspended in 200 uL 2% FBS in PBS per well and the samples were run.

[8] = molecular target: T5, cyno CD73, Sino Biological Inc Cat#90192-C08H, bound to his-tag magnet beads (cynomolgus, UniProt P21589 27-547 (human entry)); test: cell-based or functional assay
T5 chain: T1 sequence with M199T, T350A, V466I

human CD73 on cells [9] = molecular target: T2, human CD73 on cells; test: cell-based or functional assay; remark: listed apart in the source
human CD73 on cells [10] = molecular target: T2, human CD73 on cells; test: flow cytometry, Calu6 cells
Procedure: as §2, §3

human CD73 on cells [11] = molecular target: T2, human CD73 on cells; test: flow cytometry, FITC-mAb, human B cells, donor D316
Procedure: (§4) Binding of CD73.4 antibody to human B and T cells was also determined. Peripheral blood mononuclear cells (PBMC) were isolated with Lympholyte-H cell separation gradient media. […] Cells from both donors were pooled for the unstained and FMO (Fluorescence minus one) control samples.

human CD73 on cells [12] = molecular target: T2, human CD73 on cells; test: flow cytometry, FITC-mAb, human B cells, donor D329
Procedure: as §4

human CD73 on cells [13] = molecular target: T2, human CD73 on cells; test: flow cytometry, FITC-mAb, human T cells, donor D316
Procedure: as §4

human CD73 on cells [14] = molecular target: T2, human CD73 on cells; test: flow cytometry, FITC-mAb, human T cells, donor D329
Procedure: as §4

human CD73 on cells [15] = molecular target: T2, human CD73 on cells; test: binding titration on Calu6 cells, average of 2-6 experiments

Binder | EC50 (nM), inhibition of bead-bound human CD73 enzymatic activity [1] | EC50 SKMEL24 inhibition (human CD73 on cells [2]) | Ymax, cAMP HTRF assay (percent of 100 nM 11F11 control) (human CD73 on cells [3]) | EC50 (nM), high-content internalization assay, Calu6, 2 h (human CD73 on cells [4]) | Ymax, high-content internalization assay (percent of 100 nM 11F11) (human CD73 on cells [4]) | Kd [5] | Kd [6] | EC50 [7] | EC50 (nM), enzymatic inhibition of cyno CD73 (bead-bound) [8] | EC50 Calu6 inhibition (human CD73 on cells [2]) | CD73 Inhibition EC50 (nM), cAMP assay, Calu6 (human CD73 on cells [9]) | EC50 (human CD73 on cells [10]) | IC50 (human CD73 on cells [11]) | IC50 (human CD73 on cells [12]) | IC50 (human CD73 on cells [13]) | IC50 (human CD73 on cells [14]) | EC50 (human CD73 on cells [15])
B1 | 3.98 nM | 3.15 nM | 76% | 0.58 nM | 98% | 0.56 nM and 1.6 nM | 1.1 nM | 0.58 nM |  |  |  |  |  |  |  |  | 
B2 | 2.72 nM |  |  |  |  |  |  | 0.34 nM | 3.66 nM | 0.34 nM | 1.56 nM and 1.78 nM | 0.49 nM | 0.159 nM | 0.0777 nM | 0.18 nM | 0.135 nM | 0.49 nM
